Values of other authors as cited in paper PMC5626786.

Biological target: Ark1p peptide (Saccharomyces cerevisiae) (UniProt P53974)
UniProt P53974, sequence (P53974 whole entry): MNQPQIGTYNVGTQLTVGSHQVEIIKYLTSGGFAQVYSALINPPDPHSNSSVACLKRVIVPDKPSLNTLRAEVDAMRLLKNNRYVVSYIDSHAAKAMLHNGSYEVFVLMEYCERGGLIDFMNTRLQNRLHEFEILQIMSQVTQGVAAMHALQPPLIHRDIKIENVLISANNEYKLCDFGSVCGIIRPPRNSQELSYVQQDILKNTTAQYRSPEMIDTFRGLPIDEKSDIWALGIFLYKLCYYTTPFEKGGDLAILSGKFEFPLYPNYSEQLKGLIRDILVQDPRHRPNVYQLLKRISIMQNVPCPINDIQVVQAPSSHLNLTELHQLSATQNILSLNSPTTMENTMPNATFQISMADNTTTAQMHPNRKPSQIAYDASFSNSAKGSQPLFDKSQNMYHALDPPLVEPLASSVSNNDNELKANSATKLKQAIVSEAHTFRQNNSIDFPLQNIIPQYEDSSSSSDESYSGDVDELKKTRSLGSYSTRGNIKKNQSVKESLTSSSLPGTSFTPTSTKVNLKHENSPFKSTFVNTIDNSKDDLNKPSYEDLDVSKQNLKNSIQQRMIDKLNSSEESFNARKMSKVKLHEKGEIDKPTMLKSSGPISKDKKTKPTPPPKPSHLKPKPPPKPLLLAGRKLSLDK

**Q.** Which Kd does the source give for Abp1p SH3 (from UniProt P15891) here?
**A.** 4.4 µM
